B1: BH3-interacting domain death agonist (Homo sapiens), P55957 (parent)
chain: MDCEVNNGSSLRDECITNLLVFGFLQSCSDNSFRRELDALGHELPVLAPQWEGYDELQTDGNRSSHSRLGRIEADSESQEDIIRNIARHLAQVGDSMDRSIPPGLVNGLALQLRNTSRSEEDRNRDLATALEQLLQAYPRDMEKEKTMLVLALLLAKKVASHTPSLLRDVFHTTVNFINQNLRTYVRSLARNGMD
partner: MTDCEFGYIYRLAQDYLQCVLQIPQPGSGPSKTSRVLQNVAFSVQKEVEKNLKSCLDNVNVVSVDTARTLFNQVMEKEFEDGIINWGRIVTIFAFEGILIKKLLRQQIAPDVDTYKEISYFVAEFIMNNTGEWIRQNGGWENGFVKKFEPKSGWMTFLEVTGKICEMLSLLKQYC
B2: Bcl-2-like protein 2 (Homo sapiens), Q92843 (parent)
chain: MATPASAPDTRALVADFVGYKLRQKGYVCGAGPGEGPAADPLHQAMRAAGDEFETRFRRTFSDLAAQLHVTPGSAQQRFTQVSDELFQGGPNWGRLVAFFVFGAALCAESVNKEMEPLVGQVQEWMVAYLETQLADWIHSSGGWAEFTALYGDGALEEARRLREGNWASVRTVLTGAVALGALVTVGAFFASK
B3: BH3-interacting domain death agonist (Homo sapiens), P55957 (parent)
chain: B1 chain
B4: BH3-interacting domain death agonist (Homo sapiens), P55957 (parent)
chain: B1 chain
partner: B2 chain

Experimental findings from IntAct's records for PubMed 16697956 are described below.

One assay covers variants of B1. Conditions: with BCL2A1, Q16548.
MDCEVNNGSSLRDECITNLLVFGFLQSCSDNSFRRELDALGHELPVLAPQWEGYDELQTDGNRSSHSRLGRIEADSESQEDIIRNIARHAAQVGASMDRSIPPGLVNGLALQLRNTSRSEEDRNRDLATALEQLLQAYPRDMEKEKTMLVLALLLAKKVASHTPSLLRDVFHTTVNFINQNLRTYVRSLARNGMD [L90A;D95A]: the “effect of a mutation on the interaction” value is given as “disrupting interaction”.

Variants of B2 are the subject of another assay. Conditions: with bid_mouse Bid.
In the case of MATPASAPDTRALVADFVGYKLRQKGYVCGAGPGEGPAADPLHQAMRAAGDEFETRFRRTFSDLAAQLHVTPGSAQQRFTQVSDELFQGGPNWGPLVAFFVFGAALCAESVNKEMEPLVGQVQEWMVAYLETQLADWIHSSGGWAEFTALYGDGALEEARRLREGNWASVRTVLTGAVALGALVTVGAFFASK [R95P], the “effect of a mutation on the interaction” value is given as “disrupting interaction”.

Another assay covers variants of B3. Conditions: with bcl2_human BCL2, P10415.
Chain of bcl2_human BCL2, P10415 (P10415 whole entry): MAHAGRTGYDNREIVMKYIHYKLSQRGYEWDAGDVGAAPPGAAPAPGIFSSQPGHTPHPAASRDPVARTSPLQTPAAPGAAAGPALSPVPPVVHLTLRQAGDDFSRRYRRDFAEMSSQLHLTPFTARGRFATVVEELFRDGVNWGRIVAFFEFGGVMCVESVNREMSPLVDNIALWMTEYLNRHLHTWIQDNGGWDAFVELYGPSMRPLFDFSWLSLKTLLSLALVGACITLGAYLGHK
Consider MDCEVNNGSSLRDECITNLLVFGFLQSCSDNSFRRELDALGHELPVLAPQWEGYDELQTDGNRSSHSRLGRIEADSESQEDIIRNIARHAAQVGASMDRSIPPGLVNGLALQLRNTSRSEEDRNRDLATALEQLLQAYPRDMEKEKTMLVLALLLAKKVASHTPSLLRDVFHTTVNFINQNLRTYVRSLARNGMD [L90A;D95A], for which the “effect of a mutation on the interaction” value is recorded as “disrupting interaction”.

In a further assay the parent is B3. Conditions: with BCL2L1, Q07817.
Chain of BCL2L1, Q07817 (Q07817 whole entry): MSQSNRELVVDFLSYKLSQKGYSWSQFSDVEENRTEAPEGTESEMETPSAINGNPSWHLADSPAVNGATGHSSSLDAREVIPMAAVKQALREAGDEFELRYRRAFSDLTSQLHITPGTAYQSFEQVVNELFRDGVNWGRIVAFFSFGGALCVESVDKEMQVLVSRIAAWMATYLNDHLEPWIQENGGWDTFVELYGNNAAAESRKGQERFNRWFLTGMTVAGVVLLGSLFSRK
Regarding MDCEVNNGSSLRDECITNLLVFGFLQSCSDNSFRRELDALGHELPVLAPQWEGYDELQTDGNRSSHSRLGRIEADSESQEDIIRNIARHAAQVGASMDRSIPPGLVNGLALQLRNTSRSEEDRNRDLATALEQLLQAYPRDMEKEKTMLVLALLLAKKVASHTPSLLRDVFHTTVNFINQNLRTYVRSLARNGMD [L90A;D95A], the “effect of a mutation on the interaction” value is given as “disrupting interaction”.

In another assay the parent is B3. Conditions: with mcl1_human MCL1, Q07820.
Chain of mcl1_human MCL1, Q07820 (Q07820 whole entry): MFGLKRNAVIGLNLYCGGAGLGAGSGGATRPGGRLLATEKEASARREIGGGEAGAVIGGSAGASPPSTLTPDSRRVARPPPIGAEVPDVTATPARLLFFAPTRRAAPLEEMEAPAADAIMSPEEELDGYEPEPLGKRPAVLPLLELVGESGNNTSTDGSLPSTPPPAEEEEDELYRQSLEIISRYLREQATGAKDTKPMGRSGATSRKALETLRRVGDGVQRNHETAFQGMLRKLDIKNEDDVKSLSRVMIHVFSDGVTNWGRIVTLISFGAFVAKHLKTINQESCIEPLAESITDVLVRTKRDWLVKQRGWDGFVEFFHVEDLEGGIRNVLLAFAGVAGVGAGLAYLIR
In the case of MDCEVNNGSSLRDECITNLLVFGFLQSCSDNSFRRELDALGHELPVLAPQWEGYDELQTDGNRSSHSRLGRIEADSESQEDIIRNIARHAAQVGASMDRSIPPGLVNGLALQLRNTSRSEEDRNRDLATALEQLLQAYPRDMEKEKTMLVLALLLAKKVASHTPSLLRDVFHTTVNFINQNLRTYVRSLARNGMD [L90A;D95A], the “effect of a mutation on the interaction” value was “disrupting interaction”.

In another assay the parent is B4. Conditions: with BCL2L2, Q92843.
As to MDCEVNNGSSLRDECITNLLVFGFLQSCSDNSFRRELDALGHELPVLAPQWEGYDELQTDGNRSSHSRLGRIEADSESQEDIIRNIARHAAQVGASMDRSIPPGLVNGLALQLRNTSRSEEDRNRDLATALEQLLQAYPRDMEKEKTMLVLALLLAKKVASHTPSLLRDVFHTTVNFINQNLRTYVRSLARNGMD [L90A;D95A], the “effect of a mutation on the interaction” value is on record as “disrupting interaction”.
